Data from patent US20170327598A1 (published 2017).

Assays:
STAT 4 protein = target: T1, STAT 4 protein (UniProt Q14765 1-748, limits assumed); assay: sandwich ELISA, STAT protein coated at 0.5 µg/mL
T1 sequence (looked up): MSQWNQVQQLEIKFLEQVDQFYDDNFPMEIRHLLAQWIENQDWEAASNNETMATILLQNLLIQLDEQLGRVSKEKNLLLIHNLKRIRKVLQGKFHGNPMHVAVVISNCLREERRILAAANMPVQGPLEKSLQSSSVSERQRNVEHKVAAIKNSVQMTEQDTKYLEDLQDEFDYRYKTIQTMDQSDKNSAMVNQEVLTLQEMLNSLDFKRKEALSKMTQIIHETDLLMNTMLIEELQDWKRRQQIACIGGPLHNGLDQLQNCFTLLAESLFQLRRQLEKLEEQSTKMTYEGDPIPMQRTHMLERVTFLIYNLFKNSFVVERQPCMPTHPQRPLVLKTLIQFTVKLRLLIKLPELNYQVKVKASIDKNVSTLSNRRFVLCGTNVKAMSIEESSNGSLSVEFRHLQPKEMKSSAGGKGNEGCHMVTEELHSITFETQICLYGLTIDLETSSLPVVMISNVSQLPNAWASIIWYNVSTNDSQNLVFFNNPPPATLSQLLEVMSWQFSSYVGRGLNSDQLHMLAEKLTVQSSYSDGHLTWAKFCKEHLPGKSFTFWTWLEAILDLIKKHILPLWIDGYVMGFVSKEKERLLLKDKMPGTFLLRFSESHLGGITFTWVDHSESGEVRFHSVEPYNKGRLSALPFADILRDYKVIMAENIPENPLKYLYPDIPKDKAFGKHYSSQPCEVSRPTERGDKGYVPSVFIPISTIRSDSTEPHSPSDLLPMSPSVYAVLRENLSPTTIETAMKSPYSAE

STAT 1 protein = target: T2, STAT 1 protein (UniProt P42224 1-750, limits assumed); assay: sandwich ELISA, STAT protein coated at 0.5 µg/mL
T2 sequence (looked up): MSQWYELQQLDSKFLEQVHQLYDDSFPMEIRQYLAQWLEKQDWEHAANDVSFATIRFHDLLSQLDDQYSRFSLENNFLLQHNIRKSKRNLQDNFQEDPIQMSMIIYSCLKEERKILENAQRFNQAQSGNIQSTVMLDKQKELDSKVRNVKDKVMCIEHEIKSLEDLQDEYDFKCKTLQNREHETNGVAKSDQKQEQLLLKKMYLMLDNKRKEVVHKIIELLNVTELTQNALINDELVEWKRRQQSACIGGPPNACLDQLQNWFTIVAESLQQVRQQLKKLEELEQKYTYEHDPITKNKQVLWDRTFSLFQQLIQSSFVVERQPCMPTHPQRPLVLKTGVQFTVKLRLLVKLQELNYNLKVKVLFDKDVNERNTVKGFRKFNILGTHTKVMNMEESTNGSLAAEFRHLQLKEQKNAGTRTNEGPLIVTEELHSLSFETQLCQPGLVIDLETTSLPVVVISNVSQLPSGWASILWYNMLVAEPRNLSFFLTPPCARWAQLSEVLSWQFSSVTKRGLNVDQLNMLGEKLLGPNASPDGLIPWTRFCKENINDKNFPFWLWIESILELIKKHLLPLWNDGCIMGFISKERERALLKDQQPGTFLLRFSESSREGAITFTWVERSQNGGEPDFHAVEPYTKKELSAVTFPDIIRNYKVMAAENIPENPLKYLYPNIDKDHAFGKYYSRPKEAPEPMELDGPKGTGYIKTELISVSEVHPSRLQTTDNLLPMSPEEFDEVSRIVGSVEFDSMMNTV

B1: anti-STAT3 VHH13 (SEQ ID NO:3) sdAb (VHH)
VHH: HVQLVESGGGSVQAGGSLRLSCAASGANGGRSCMGWFRQVPGKEREGVSGISTGGLITYYADSVKGRFTISQDNTKNTLYLQMNSLKPEDTAMYYCATSRFDCYRGSWFNRYMYNSWGQGTQVTVSS
Mean OD450 (STAT 4 protein): 0.083 OD450 | Mean OD450 (STAT 1 protein): 0.026 OD450
